Here are results for two substances from PMC12645962.

The target of assay [1] is 1059-SOSIP soluble Env trimer produced in FreeStyle 293 F cells (HIV-1 1059). The assay can be described thus: SEC; HiLoad 16/600 Superdex 200 pg column after GNA lectin affinity purification; trimeric fractions taken.
Assay [2] concerns the target 1059-SOSIP soluble Env trimer produced in HEK293 cells grown in BalanCD medium (HIV-1 1059). The assay is described as above.

Consider “1059-SOSIP soluble Env trimer produced in FreeStyle 293 F cells (domain or fragment)”, for which the stoichiometry N in assay [1] worked out at 3. In assay [2], “1059-SOSIP soluble Env trimer produced in HEK293 cells grown in BalanCD medium (domain or fragment)” had a stoichiometry N of 3.
